Reference: publication PMC5018249

Columns and labels:
[1] = biological target: BG505 SOSIP-GT3-PADRE (HIV-1 strain BG505); assay: SEC-MALS; purified immunogen in solution; conditions not given
[2] = biological target: BG505 SOSIP.D664 (HIV-1 strain BG505); assay: SEC-MALS + other: negative-stain electron microscopy; in-house purified BG505 SOSIP trimers, thawed and analysed

Substance | stoichiometry N [1] | stoichiometry N [2]
BG505 SOSIP-GT3-PADRE | 3 | –
BG505 SOSIP.D664 (domain or fragment) | – | 3
